Data taken from paper PMC4788495 (Journal of bioenergetics and biomembranes, 2008).

B2: cytochrome b subunit of the wild-type R. sphaeroides cytochrome bc1 complex (Rsbc1) (natural protein)
chain: GIPHDHYEPRTGIEKWLHSRLPIVALAYDTIMIPTPRNLNWMWIWGVVLAFCLVLQIVTGIVLAMHYTPHVDLAFASVEHIMRNVNGGFMLRYLHANGASLFFIAVYLHIFRGLYYGSYKAPREVTWIVGMLIYLAMMATAFMGYVLPWGQMSFWGATVITGLFGAIPGIGHSIQTWLLGGPAVDNATLNRFFSLHYLLPFVIAALVAIHIWAFHSTGNNNPTGVEVRRTSKAEAQKDTVPFWPYFIIKDVFALAVVLLVFFAIVGFMPNYLGHPDNYIEANPLSTPAHIVPEWYFLPFYAILRAFTADVWVVQIANFISFGIIDAKFFGVLAMFGAILVMALVPWLDTSPVRSGRYRPMFKIYFWLLAADFVILTWVGAQQTTFPYDWISLIASAYWFAYFLVILPILGAIEKPVAPPATIEEDFNA
B4: cytochrome b S287R, subunit of the double mutant S287R(cyt b)/V135S(ISP) Rsbc1 (natural protein, R. sphaeroides, UniProt Q02761 1-445, looked up)
chain: MSGIPHDHYEPRTGIEKWLHSRLPIVALAYDTIMIPTPRNLNWMWIWGVVLAFCLVLQIVTGIVLAMHYTPHVDLAFASVEHIMRNVNGGFMLRYLHANGASLFFIAVYLHIFRGLYYGSYKAPREVTWIVGMLIYLAMMATAFMGYVLPWGQMSFWGATVITGLFGAIPGIGHSIQTWLLGGPAVDNATLNRFFSLHYLLPFVIAALVAIHIWAFHSTGNNNPTGVEVRRTSKAEAQKDTVPFWPYFIIKDVFALAVVLLVFFAIVGFMPNYLGHPDNYIEANPLRTPAHIVPEWYFLPFYAILRAFTADVWVVQIANFISFGIIDAKFFGVLAMFGAILVMALVPWLDTSPVRSGRYRPMFKIYFWLLAADFVILTWVGAQQTTFPYDWISLIASAYWFAYFLVILPILGAIEKPVAPPATIEEDFNAHYSPATGGTKTVVAE

What was measured:
[1] = target: B2; assay: SEC
[2] = target: B4; assay: crystal structure
crystal structure [3] = target: the molecule itself; assay: crystal structure
crystal structure [4] = target: the molecule itself; assay: crystal structure; remark: listed apart in the source
[5] = target: B2; assay: crystal structure

B1: cytochrome c1 subunit of the R. sphaeroides cytochrome bc1 complex (Rsbc1), his-tag at the C-terminus (natural protein, UniProt Q02760 23-285, looked up)
chain: AGGGHVEDVPFSFEGPFGTFDQHQLQRGLQVYTEVCAACHGMKFVPIRSLSEPGGPELPEDQVRAYATQFTVTDEETGEDREGKPTDHFPHSALENAADLSLMAKARAGFHGPMGTGISQLFNGIGGPEYIYSVLTGFPEEPPKCAEGHEPDGFYYNRAFQNGSVPDTCKDANGVKTTAGSWIAMPPPLMDDLVEYADGHDASVHAMAEDVSAFLMWAAEPKLMARKQAGFTAVMFLTVLSVLLYLTNKRLWAGVKGKKKTNV
B1: binds [1]; binds [2].

B2: binds (crystal structure [3]).

B3: Rieske iron-sulfur protein V135S, subunit of the double mutant S287R(cyt b)/V135S(ISP) Rsbc1 (natural protein, R. sphaeroides, UniProt Q02762 1-187, looked up)
chain: MSNAEDHAGTRRDFLYYATAGAGAVATGAAVWPLINQMNPSADVQALASIFVDVSSVEPGVQLTVKFLGKPIFIRRRTEADIELGRSVQLGQLVDTNARNANIDAGAEATDQNRTLDEAGEWLVMWGVCTHLGCSPIGGVSGDFGGWFCPCHGSHYDSAGRIRKGPAPENLPIPLAKFIDETTIQLG
B3: binds [2].

In the case of B4, the “stoichiometry N” value (crystal structure [4]) is reported as 2.

B5: Rieske iron-sulfur protein subunit of the wild-type R. sphaeroides cytochrome bc1 complex (Rsbc1) (natural protein)
chain: GTRRDFLYYATAGAGAVATGAAVWPLINQMNPSADVQALASIFVDVSSVEPGVQLTVKFLGKPIFIRRRTEADIELGRSVQLGQLVDTNARNANIDAGAEATDQNRTLDEAGEWLVMWGVCTHLGCVPIGGVSGDFGGWFCPCHGSHYDSAGRIRKGPAPENLPIPLAKFIDETTIQLG
B5: binds [5].
